Sequences and labels used below:
B1: Example 14068 (peptide)
peptide: {CH2CO}-Y[NMeA]DPHQ[Hyp]WSW[NMeNle][NMeNle]ECG[Pra′]([triazole-X1])
modifications: thioether N-14
B2: Example 14079 (peptide)
peptide: {CH2CO}-Y[NMeA]DPHK[Hyp]WK[Trp(1-CH2CO)][NMeNle][NMeNle]ECG[Pra′]([triazole-X2])
modifications: thioether N-14
B3: Example 14080 (peptide)
peptide: {CH2CO}-Y[NMeA]NP[Dap]L[Hyp]WS[Trp(1-CH2CO)][NMeNle][NMeNle]LCG[Pra′]([triazole-X2])
modifications: thioether N-14
B4: Example 14083 (peptide)
peptide: {CH2CO}-Y[NMeA]NP[Dap]L[Hyp]WS[Trp(1-CH2CO)][NMeNle][NMeNle]LCG[Pra(4)]([triazole-Dab-C16 diacid])
modifications: thioether N-14
B5: Example 13124 (peptide)
peptide: {CH2CO}-Y[NMeA]NP[Dap]L[Hyp]W[Dab][Trp(1-CH2CO)][NMeNle][NMeNle]LCGGG[Pra″]([triazole-PEG7′-γGlu-C18 diacid])
modifications: thioether N-14 (inferred)
B6: Example 14069 (peptide)
peptide: {CH2CO}-Y[NMeA]DPHQ[Hyp]WSW[NMeNle][NMeNle]ECG[Pra′]([triazole-X1])G
modifications: thioether N-14
B7: INT-130AB (peptide)
peptide: {CH2CO}-Y[NMeA]NP[Dap]L[Hyp]W[Dab][Trp(1-CH2CO)][NMeNle][NMeNle]LCGGG[Pra]-OH
modifications: thioether N-14
SMILES: C#CC[C@H](NC(=O)CNC(=O)CNC(=O)CNC(=O)[C@@H]1CSCC(=O)N[C@@H](Cc2ccc(O)cc2)C(=O)N(C)[C@@H](C)C(=O)N[C@@H](CC(N)=O)C(=O)N2CCC[C@H]2C(=O)N[C@@H](CN)C(=O)N[C@@H](CC(C)C)C(=O)N2C[C@H](O)C[C@H]2C(=O)N[C@@H](Cc2c[nH]c3ccccc23)C(=O)N[C@@H](CCN)C(=O)N[C@@H](Cc2cn(CC(=O)O)c3ccccc23)C(=O)N(C)[C@@H](CCCC)C(=O)N(C)[C@@H](CCCC)C(=O)N[C@@H](CC(C)C)C(=O)N1)C(=O)O
notes: also called Intermediate 130AB
B8: Example 14063 (peptide)
peptide: {CH2CO}-Y[NMeA]DPHK[Hyp]WKW[NMeNle][NMeNle]ECG[Pra(3)]([triazole″-2,5,8,11‑tetraoxatridecyl])G
modifications: thioether N-14; reading uncertain
B9: Example 14075 (peptide)
peptide: {CH2CO}-Y[NMeA]DPHK[Hyp]WK[Trp(1-CH2CO)][NMeNle][NMeNle]ECG[Pra′]([triazole-X1])
modifications: thioether N-14
B10: Example 14073 (peptide)
peptide: {CH2CO}-[Phe(3,4,5-F3)][NMeF][NMeNle][dP]DV[NMeF][Orn][dP]WYLCG[Pra′]([triazole-X1])
modifications: thioether N-13
B11: Example 14062 (peptide)
peptide: {CH2CO}-Y[NMeA]DPHQ[Hyp]WSW[NMeNle][NMeNle]ECG[Pra(3)]([triazole″-X2])G
modifications: thioether N-14; reading uncertain
B12: Example 14074 (peptide)
peptide: {CH2CO}-[Phe(3,4,5-F3)][NMeF][NMeNle][dHyp]DV[NMeF]D[dP]WYLCG[Pra′]([triazole-X1])
modifications: thioether N-13
B13: Example 13154 (peptide)
peptide: {CH2CO}-[Phe(4-OMe)][Pip]NPHQ[Hyp]W[Dab][Trp(1-CH2CO)][NMeNle][NMeNle]LCG[Dap]([γGlu-C18 diacid])
modifications: thioether N-14
B14: Example 14123 (peptide)
peptide: FXDPXLPWXWXXLCGE
modifications: ClAc-Tyr(4-F)-Pip-Asp-Pro-Dap-Leu-Hyp-Trp-Dab-Trp'-mNle-mNle-Leu-Cys-Gly-((S)-4-(Fmoc-amino)-5-(tert-butoxy)-5-oxopentanoic acid)-[Modified resin 14A], deprotected; Glu joined through its gamma-carboxyl; 14A = ethylenediamine amide of the gamma-carboxyl of Glu N-(17-carboxyheptadecanoyl); cyclised ClAc-Cys
B15: INT-130AI (peptide)
peptide: {CH2CO}-Y[Pip]NP[Dap]L[Hyp]W[Dab][Trp(1-CH2CO)][NMeNle][NMeNle]LCG[Pra]
modifications: thioether N-14 (inferred)
B16: INT-130AG (peptide)
peptide: {CH2CO}-Y[NMeA]NP[Dap]L[Hyp]W[Dab][Trp(1-CH2CO)][NMeNle][NMeNle]EC[Pra]-OH
modifications: thioether N-14
SMILES: C#CC[C@H](NC(=O)[C@@H]1CSCC(=O)N[C@@H](Cc2ccc(O)cc2)C(=O)N(C)[C@@H](C)C(=O)N[C@@H](CC(N)=O)C(=O)N2CCC[C@H]2C(=O)N[C@@H](CN)C(=O)N[C@@H](CC(C)C)C(=O)N2C[C@H](O)C[C@H]2C(=O)N[C@@H](Cc2c[nH]c3ccccc23)C(=O)N[C@@H](CCN)C(=O)N[C@@H](Cc2cn(CC(=O)O)c3ccccc23)C(=O)N(C)[C@@H](CCCC)C(=O)N(C)[C@@H](CCCC)C(=O)N[C@@H](CCC(=O)O)C(=O)N1)C(=O)O
B17: INT-1300A (peptide)
peptide: {CH2CO}-Y[NMeA]NP[Dap]L[Hyp]WS[Bzt][NMeNle][NMeNle]RCG[Pra]
modifications: thioether N-14
B18: INT-130AJ (peptide)
peptide: {CH2CO}-Y[Pip]NP[Dap]L[Hyp]W[Dab][Trp(1-CH2CO)][NMeNle][NMeNle]ECG[Pra]
modifications: thioether N-14 (inferred)
B19: Example 13152 (peptide)
peptide: {CH2CO}-Y[Pip]NP[Dap]L[Hyp]W[Dab][Trp(1-CH2CO)][NMeNle][NMeNle]LCG[Dap]([γGlu-C18 diacid])
modifications: thioether N-14 (inferred)
B20: INT-1300B (peptide)
peptide: {CH2CO}-Y[NMeA]NP[Dap]L[Hyp]WS[Bzt][NMeNle][NMeNle]RCG[Aha]
modifications: thioether N-14
B21: Example 13153 (peptide)
peptide: {CH2CO}-Y[NMeA]NP[Dap]L[Hyp]W[Dab][Trp(1-CH2CO)][NMeNle][NMeNle]LCG[Dap]([γGlu-C18 diacid])
modifications: thioether N-14 (inferred)
B22: INT-130AH (peptide)
peptide: {CH2CO}-Y[NMeA]NP[Dap]L[Hyp]W[Dab][Trp(1-CH2CO)][NMeNle][NMeNle]DC[Pra]-OH
modifications: thioether N-14 (inferred)
B23: INT-130AF (peptide)
peptide: {CH2CO}-Y[NMeA]NP[Dap]L[Hyp]W[Dab][Trp(1-CH2CO)][NMeNle][NMeNle]LC[Pra]-OH
modifications: thioether N-14
SMILES: C#CC[C@H](NC(=O)[C@@H]1CSCC(=O)N[C@@H](Cc2ccc(O)cc2)C(=O)N(C)[C@@H](C)C(=O)N[C@@H](CC(N)=O)C(=O)N2CCC[C@H]2C(=O)N[C@@H](CN)C(=O)N[C@@H](CC(C)C)C(=O)N2C[C@H](O)C[C@H]2C(=O)N[C@@H](Cc2c[nH]c3ccccc23)C(=O)N[C@@H](CCN)C(=O)N[C@@H](Cc2cn(CC(=O)O)c3ccccc23)C(=O)N(C)[C@@H](CCCC)C(=O)N(C)[C@@H](CCCC)C(=O)N[C@@H](CC(C)C)C(=O)N1)C(=O)O
B24: INT-130AL (peptide)
peptide: {CH2CO}-Y[Pip]NP[DapMe]L[Hyp]W[Dab][Trp(1-CH2CO)][NMeNle][NMeNle]ECG[Pra]
modifications: thioether N-14 (inferred)
B25: INT-130AK (peptide)
peptide: {CH2CO}-Y[Pip]NP[DapMe]L[Hyp]W[Dab][Trp(1-CH2CO)][NMeNle][NMeNle]LCG[Pra]
modifications: thioether N-14 (inferred)

One may read the IC50 as the concentration that inhibits the measured activity by half.

Starred links: 1 amine or outer side, 2 acyl side, 3 side chain; linkers in the order of their positions; H or OH if unused. Positions of bridges follow the written chain, without caps; N, C: chain ends. Non-standard residues stand in square brackets, D forms with d. Groups on a side chain read outwards from the residue. Primed or numbered codes have the meaning given here. No end group written: not given here. *: point of attachment. Pra′ = propargylglycine (built in as LPH), clicked to a 1-substituted triazol-4-yl-alanine, O=C([C@H](Cc1cn([*:3])nn1)N[*:1])[*:2]; X1 = (S)‑3‑carboxy‑3‑(15-carboxypentadecanoylamino)propyl, O=C(O)CCCCCCCCCCCCCCC(=O)N[C@@H](CC*)C(=O)O; Phe(4-OMe) = p-methoxyphenylalanine (O-methyl-L-tyrosine), COc1ccc(C[C@H](N[*:1])C(=O)[*:2])cc1; Pra″ = its azide, alkyne or alkene has reacted where a group follows in round brackets; Pra(4) = propargylglycine, clicked with an azide to give a triazolylalanine residue; X2 = (S)‑3‑carboxy‑3‑palmitamidopropyl, CCCCCCCCCCCCCCCC(=O)N[C@@H](CC*)C(=O)O; Pra(3) = propargylglycine, clicked to an azide to give a triazolyl-alanine; triazole = 1,2,3-triazole formed by click of the Pra alkyne with the azide; Trp(1-CH2CO) = O=C([C@H](Cc1cn(CC(=O)[*:3])c2ccccc12)N[*:1])[*:2]; Phe(3,4,5-F3) = N[C@@H](Cc1cc(F)c(F)c(F)c1)C(=O)O; C18 diacid = O=C(O)CCCCCCCCCCCCCCCCC(=O)*; C16 diacid = O=C(O)CCCCCCCCCCCCCCC(=O)*; γGlu = O=C(O)[C@H](CCC(=O)[*:2])N[*:1]; Aha = [N-]=[N+]=NCC[C@H](N)C(=O)O; Hyp = O=C(O)[C@@H]1C[C@@H](O)CN1; NMeF = CN[C@@H](Cc1ccccc1)C(=O)O; dHyp = O=C(O)[C@H]1C[C@H](O)CN1; NMeNle = CCCC[C@H](NC)C(=O)O; triazole″ = not defined here; Bzt = benzothienylalanine; Pip = O=C(O)[C@@H]1CCCCN1; NMeA = CN[C@@H](C)C(=O)O; Orn = NCCC[C@H](N)C(=O)O; PEG7′ = not defined here; Pra = C#CC[C@H](N)C(=O)O; Dab = NCC[C@H](N)C(=O)O; Dap = NC[C@H](N)C(=O)O

One assay deals with T1, Recombinant Human PD-L1-TVMV-His (human, UniProt Q9NZQ7 19-239).
T1 construct: expressed in HEK293T cells; also called PD-L1-His; hPD-L1(19-239)-TVMV-His
T1 sequence (Q9NZQ7 other isoform, or with tags, fused parts or gaps limits assumed): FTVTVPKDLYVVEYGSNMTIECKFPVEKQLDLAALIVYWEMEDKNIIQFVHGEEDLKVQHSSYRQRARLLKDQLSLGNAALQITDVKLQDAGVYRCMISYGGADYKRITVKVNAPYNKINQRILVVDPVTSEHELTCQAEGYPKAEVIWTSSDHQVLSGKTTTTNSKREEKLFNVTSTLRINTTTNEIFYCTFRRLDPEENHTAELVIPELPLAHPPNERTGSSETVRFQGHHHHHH
In words: HTRF vs PD-1-Ig; B = IC50 0.01-0.099 µM. Here is the method: (§1) Homogenous Time-Resolved Fluorescence (HTRF) Assays of Binding of Soluble PD-1 to Soluble PD-L1. Soluble PD-1 and soluble PD-L1 refers to proteins with carboxyl-end truncations that remove the transmembrane-spanning regions and are fused to heterologous sequences, specifically the Fc portion of the human immunoglobuling G sequence (Ig) or the hexahistidine epitope tag (His). All binding studies were performed in an HTRF assay buffer consisting of dPBS supplemented with 0.1% (w/v) bovine serum albumin and 0.05% (v/v) Tween-20. For the PD-1-Ig/PD-L1-His binding assay, inhibitors were pre-incubated with PD-L1-His (10 nM final) for 15 m in 4 μl of assay buffer, followed by addition of PD-1-Ig (20 nM final) in 1 μl of assay buffer and further incubation for 15 m. PD-L1 fusion proteins from either human, cynomologous macaques, mouse, or other species were used. HTRF detection was achieved using europium crypate-labeled anti-Ig monoclonal antibody (1 nM final) and allophycocyanin (APC) labeled anti-His monoclonal antibody (20 nM final). Antibodies were diluted in HTRF detection buffer and 5 μl was dispensed on top of binding reaction. The reaction was allowed to equilibrate for 30 minutes and signal (665 nm/620 nm ratio) was obtained using an EnVision fluorometer. Additional binding assays were established between PD-I-Ig/PD-L2-His (20 and 5 nM, respectively), CD80-His/PD-L1-Ig (100 and 10 nM, respectively) and CD80-His/CTLA4-Ig (10 and 5 nM, respectively). Binding/competition studies between biotinylated Compound No. 71 and human PD-L1-His were performed as follows. Macrocyclic peptide inhibitors were pre-incubated with PD-L1-His (10 nM final) for 60 minutes in 4 μl of assay buffer followed by addition of biotinylated Compound No. 71 (0.5 nM final) in 1 μl of assay buffer. Binding was allowed to equilibrate for 30 minutes followed by addition of europium crypated labeled Streptavidin (2.5 pM final) and APC-labeled anti-His (20 nM final) in 5 μl of HTRF buffer. The reaction was allowed to equilibrate for 30 m and signal (665 nm/620 nm ratio) was obtained using an EnVision fluorometer.
On the technique in general: In TR-FRET formats the signal depends on donor and acceptor labels being close together.
Take B1: the IC50 fell in the range of 10 to 99 nM.

In the case of B2, the IC50 lay in the range of 10 to 99 nM. The same measure, in the same setting: then B3, with 10 to 99 nM; and B4, with 10 to 99 nM. Same read-out and setting: then B5, with 10 to 99 nM; and B6, with 10 to 99 nM.

For B7, the 50% inhibitory concentration (IC50) was in the range of 10 to 99 nM. Still for that read-out and setting: the figure for B8 is 10 to 99 nM; for B9 it is 10 to 99 nM. On to B10, for which the half-maximal inhibitory concentration (IC50) lay within 10 to 99 nM. The same measure, in the same setting: the figure for B11 is 10 to 99 nM; for B12 it is 10 to 99 nM.

The next assay has as its target T1, Recombinant Human PD-L1-TVMV-His. In words: HTRF vs PD-1-Ig; C = IC50 0.0003-0.0099 µM. The procedure: as §1
In the case of B13, the concentration for half-maximal inhibition (IC50) lay in the range of 0.3 to 9.9 nM. Same read-out and setting: then B14, with 0.3 to 9.9 nM. Turning to B15, the 50% inhibitory concentration (IC50) lay within 0.3 to 9.9 nM. Still for that read-out and setting: then B16, with 0.3 to 9.9 nM; and B17, with 0.3 to 9.9 nM; and B18, with 0.3 to 9.9 nM. Take B19: the 50% inhibitory concentration (IC50) lay in the range of 0.3 to 9.9 nM. The same measure, in the same setting: the figure for B20 is 0.3 to 9.9 nM. The same measure, in the same setting: then B21, with 0.3 to 9.9 nM; and B22, with 0.3 to 9.9 nM; and B23, with 0.3 to 9.9 nM. Same read-out and setting: then B24, with 0.3 to 9.9 nM; and B25, with 0.3 to 9.9 nM.
